Laboratory results from IntAct's records for PubMed 39009827.

B1: Mitotic checkpoint serine/threonine-protein kinase BUB1 (Homo sapiens), O43683 (parent)
chain: MDTPENVLQMLEAHMQSYKGNDPLGEWERYIQWVEENFPENKEYLITLLEHLMKEFLDKKKYHNDPRFISYCLKFAEYNSDLHQFFEFLYNHGIGTLSSPLYIAWAGHLEAQGELQHASAVLQRGIQNQAEPREFLQQQYRLFQTRLTETHLPAQARTSEPLHNVQVLNQMITSKSNPGNNMACISKNQGSELSGVISSACDKESNMERRVITISKSEYSVHSSLASKVDVEQVVMYCKEKLIRGESEFSFEELRAQKYNQRRKHEQWVNEDRHYMKRKEANAFEEQLLKQKMDELHKKLHQVVETSHEDLPASQERSEVNPARMGPSVGSQQELRAPCLPVTYQQTPVNMEKNPREAPPVVPPLANAISAALVSPATSQSIAPPVPLKAQTVTDSMFAVASKDAGCVNKSTHEFKPQSGAEIKEGCETHKVANTSSFHTTPNTSLGMVQATPSKVQPSPTVHTKEALGFIMNMFQAPTLPDISDDKDEWQSLDQNEDAFEAQFQKNVRSSGAWGVNKIISSLSSAFHVFEDGNKENYGLPQPKNKPTGARTFGERSVSRLPSKPKEEVPHAEEFLDDSTVWGIRCNKTLAPSPKSPGDFTSAAQLASTPFHKLPVESVHILEDKENVVAKQCTQATLDSCEENMVVPSRDGKFSPIQEKSPKQALSSHMYSASLLRLSQPAAGGVLTCEAELGVEACRLTDTDAAIAEDPPDAIAGLQAEWMQMSSLGTVDAPNFIVGNPWDDKLIFKLLSGLSKPVSSYPNTFEWQCKLPAIKPKTEFQLGSKLVYVHHLLGEGAFAQVYEATQGDLNDAKNKQKFVLKVQKPANPWEFYIGTQLMERLKPSMQHMFMKFYSAHLFQNGSVLVGELYSYGTLLNAINLYKNTPEKVMPQGLVISFAMRMLYMIEQVHDCEIIHGDIKPDNFILGNGFLEQDDEDDLSAGLALIDLGQSIDMKLFPKGTIFTAKCETSGFQCVEMLSNKPWNYQIDYFGVAATVYCMLFGTYMKVKNEGGECKPEGLFRRLPHLDMWNEFFHVMLNIPDCHHLPSLDLLRQKLKKVFQQHYTNKIRALRNRLIVLLLECKRSRK
B2: Microphthalmia-associated transcription factor (Homo sapiens), O75030 (parent)
chain: MQSESGIVPDFEVGEEFHEEPKTYYELKSQPLKSSSSAEHPGASKPPISSSSMTSRILLRQQLMREQMQEQERREQQQKLQAAQFMQQRVPVSQTPAINVSVPTTLPSATQVPMEVLKVQTHLENPTKYHIQQAQRQQVKQYLSTTLANKHANQVLSLPCPNQPGDHVMPPVPGSSAPNSPMAMLTLNSNCEKEGFYKFEEQNRAESECPGMNTHSRASCMQMDDVIDDIISLESSYNEEILGLMDPALQMANTLPVSGNLIDLYGNQGLPPPGLTISNSCPANLPNIKRELTACIFPTESEARALAKERQKKDNHNLIERRRRFNINDRIKELGTLIPKSNDPDMRWNKGTILKASVDYIRKLQREQQRAKELENRQKKLEHANRHLLLRIQELEMQARAHGLSLIPSTGLCSPDLVNRIIKQEPVLENCSQDLLQHHADLTCTTTLDLTDGTITFNNNLGTGTEANQAYSVPTKMGSKLEDILMDDTLSPVGVTDPLLSSVSPGASKTSSRRSSMSMEETEHTC
B3: "Poly(A) RNA polymerase, mitochondrial" (Homo sapiens), Q9NVV4 (parent)
chain: MAVPGVGLLTRLNLCARRRTRVQRPIVRLLSCPGTVAKDLRRDEQPSGSVETGFEDKIPKRRFSEMQNERREQAQRTVLIHCPEKISENKFLKYLSQFGPINNHFFYESFGLYAVVEFCQKESIGSLQNGTHTPSTAMETAIPFRSRFFNLKLKNQTSERSRVRSSNQLPRSNKQLFELLCYAESIDDQLNTLLKEFQLTEENTKLRYLTCSLIEDMAAAYFPDCIVRPFGSSVNTFGKLGCDLDMFLDLDETRNLSAHKISGNFLMEFQVKNVPSERIATQKILSVLGECLDHFGPGCVGVQKILNARCPLVRFSHQASGFQCDLTTNNRIALTSSELLYIYGALDSRVRALVFSVRCWARAHSLTSSIPGAWITNFSLTMMVIFFLQRRSPPILPTLDSLKTLADAEDKCVIEGNNCTFVRDLSRIKPSQNTETLELLLKEFFEYFGNFAFDKNSINIRQGREQNKPDSSPLYIQNPFETSLNISKNVSQSQLQKFVDLARESAWILQQEDTDRPSISSNRPWGLVSLLLPSAPNRKSFTKKKSNKFAIETVKNLLESLKGNRTENFTKTSGKRTISTQT

Variants of: B1
Details: with mlp3b_human MAP1LC3B

Row | Variant | effect of a mutation on the interaction
1 | S492F | increasing interaction strength

Variants of: B1
Details: with gbrl1_human GABARAPL1, Q9H0R8
Sequence of gbrl1_human GABARAPL1, Q9H0R8 (Q9H0R8 whole entry, looked up): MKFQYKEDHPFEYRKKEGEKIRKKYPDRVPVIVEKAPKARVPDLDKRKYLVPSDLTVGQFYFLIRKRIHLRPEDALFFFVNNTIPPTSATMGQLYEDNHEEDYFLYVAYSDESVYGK

Row | Variant | effect of a mutation on the interaction
2 | S492F | increasing interaction strength

Variants of: B2
Details: with clh1_human CLTC

Row | Variant | effect of a mutation on the interaction
3 | Y265C | with no effect

Variants of: B3
Details: with eps15_human EPS15, P42566
Sequence of eps15_human EPS15, P42566 (P42566 whole entry): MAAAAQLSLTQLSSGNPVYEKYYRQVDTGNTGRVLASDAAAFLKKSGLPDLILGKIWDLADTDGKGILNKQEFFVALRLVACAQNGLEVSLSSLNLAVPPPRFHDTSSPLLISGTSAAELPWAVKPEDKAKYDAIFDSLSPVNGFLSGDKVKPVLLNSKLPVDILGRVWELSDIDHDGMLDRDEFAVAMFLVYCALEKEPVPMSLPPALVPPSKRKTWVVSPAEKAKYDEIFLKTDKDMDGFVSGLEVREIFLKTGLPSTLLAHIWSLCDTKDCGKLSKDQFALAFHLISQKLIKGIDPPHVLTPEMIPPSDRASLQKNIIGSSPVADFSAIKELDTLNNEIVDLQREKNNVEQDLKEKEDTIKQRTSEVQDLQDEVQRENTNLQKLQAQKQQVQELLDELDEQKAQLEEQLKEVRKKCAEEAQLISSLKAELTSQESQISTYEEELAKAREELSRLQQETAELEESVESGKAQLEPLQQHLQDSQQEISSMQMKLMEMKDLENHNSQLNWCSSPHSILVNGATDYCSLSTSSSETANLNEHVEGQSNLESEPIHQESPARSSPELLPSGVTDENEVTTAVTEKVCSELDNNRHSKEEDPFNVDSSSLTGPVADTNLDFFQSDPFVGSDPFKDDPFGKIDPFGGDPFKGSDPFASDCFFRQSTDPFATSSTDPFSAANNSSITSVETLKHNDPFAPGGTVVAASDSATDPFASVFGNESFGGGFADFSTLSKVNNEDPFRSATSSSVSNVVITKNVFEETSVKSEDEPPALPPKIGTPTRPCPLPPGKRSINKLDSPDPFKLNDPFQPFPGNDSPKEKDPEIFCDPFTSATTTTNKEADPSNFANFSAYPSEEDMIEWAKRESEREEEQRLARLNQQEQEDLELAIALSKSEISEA

Row | Variant | effect of a mutation on the interaction
4 | N478D | decreasing interaction strength
